Measurements as given in paper PMC11283359 (Molecular cell, 2024).

T1: 3XFLAG-MED26 (knock-in) (mouse (endogenous in CH12), UniProt Q7TN02 1-588)
T1 sequence (looked up): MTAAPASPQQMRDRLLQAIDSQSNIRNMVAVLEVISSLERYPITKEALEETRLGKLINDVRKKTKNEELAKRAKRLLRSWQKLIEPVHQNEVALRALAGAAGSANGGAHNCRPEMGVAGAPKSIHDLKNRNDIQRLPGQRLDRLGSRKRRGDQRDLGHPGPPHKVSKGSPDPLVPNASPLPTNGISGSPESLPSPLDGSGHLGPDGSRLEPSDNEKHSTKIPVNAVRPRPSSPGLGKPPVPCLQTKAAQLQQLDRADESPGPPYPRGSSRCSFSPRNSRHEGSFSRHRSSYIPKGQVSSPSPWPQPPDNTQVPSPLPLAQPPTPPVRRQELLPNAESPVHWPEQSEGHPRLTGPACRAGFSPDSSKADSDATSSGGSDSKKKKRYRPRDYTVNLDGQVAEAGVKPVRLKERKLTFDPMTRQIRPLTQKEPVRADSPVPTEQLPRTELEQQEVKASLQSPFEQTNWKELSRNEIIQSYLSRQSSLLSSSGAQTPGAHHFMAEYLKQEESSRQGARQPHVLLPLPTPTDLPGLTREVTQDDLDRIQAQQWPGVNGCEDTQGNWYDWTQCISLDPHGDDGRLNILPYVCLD

B1: MED7 (natural protein, mouse (endogenous in CH12), UniProt Q9CZB6 1-233, looked up)
chain: MGEPQQVSALPPPPMQYIKEYTDENIQEGLAPKPPPPIKDSYMMFGNQFQCDDLIIRPLESQGIERLHPMQFDHKKELRKLNMSILINFLDLLDILIRSPGSIKREEKLEDLKLLFVHVHHLINEYRPHQARETLRVMMEVQKRQRLETAERFQKHLERVIEMIQNCLASLPDDLPHSEAGMRVKAEPMDTDDNSNCPGQNEQQRESSGHRRDQIIEKDAALCVLIDEMNERP
B2: MED31 (endogenous) (natural protein, mouse (endogenous in CH12), UniProt Q9CXU1 1-131, looked up)
chain: MAAAVAMETDDAGNRLRFQLELEFVQCLANPNYLNFLAQRGYFKDKAFVNYLKYLLYWKEPEYAKYLKYPQCLHMLELLQYEHFRKELVNAQCAKFIDEQQILHWQHYSRKRVRLQQALAEQQQQNNTAGK
B3: MED21 (natural protein, mouse (endogenous in CH12), UniProt Q9CQ39 1-144, looked up)
chain: MADRLTQLQDAVNSLADQFCNAIGVLQQCGPPASFSNIQTAINKDQPANPTEEYAQLFAALIARTAKDIDVLIDSLPSEESTAALQAASLYKLEEENHEAATCLEDVVYRGDMLLEKIQSALADIAQSQLKTRSVTHSHSLPDS

The binders below were run against T1, 3XFLAG-MED26 (knock-in) (assay: cryo-EM structure).

binding result	Binder
binds	B1
binds	B2
binds	B3
